T1: human DR3 (full length, on cells) (human, UniProt Q93038 25-417)
T1 sequence: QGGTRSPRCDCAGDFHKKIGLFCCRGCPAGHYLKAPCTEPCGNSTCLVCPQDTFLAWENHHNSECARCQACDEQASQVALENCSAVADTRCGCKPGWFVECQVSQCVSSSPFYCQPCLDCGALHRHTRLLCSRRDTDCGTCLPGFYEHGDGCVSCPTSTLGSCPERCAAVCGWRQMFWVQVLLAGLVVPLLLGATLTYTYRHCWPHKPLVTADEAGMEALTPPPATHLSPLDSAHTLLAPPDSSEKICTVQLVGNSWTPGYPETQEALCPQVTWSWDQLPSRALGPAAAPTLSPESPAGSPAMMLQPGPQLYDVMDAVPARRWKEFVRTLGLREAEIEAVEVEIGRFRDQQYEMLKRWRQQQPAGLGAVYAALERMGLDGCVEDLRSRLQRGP

T2: human DR3 with the death domain deleted (ΔM339-P417 of SEQ ID NO:1), expressed on CHOK1SV cells (human, UniProt Q93038 25-338)
T2 construct: also called truncated DR3; hDR3 expressing CHO cells
T2 sequence: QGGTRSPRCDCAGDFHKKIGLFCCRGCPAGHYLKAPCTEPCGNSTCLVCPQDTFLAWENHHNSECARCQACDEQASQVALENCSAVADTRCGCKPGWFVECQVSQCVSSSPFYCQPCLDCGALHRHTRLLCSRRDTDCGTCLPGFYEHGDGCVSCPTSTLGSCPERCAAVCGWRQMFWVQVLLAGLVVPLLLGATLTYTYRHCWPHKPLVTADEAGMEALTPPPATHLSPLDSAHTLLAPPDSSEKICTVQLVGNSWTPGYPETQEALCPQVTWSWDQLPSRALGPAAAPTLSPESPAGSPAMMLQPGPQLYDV


Experiments:
[1] = molecular target: T1, human DR3 (full length, on cells); test: cell-based or functional assay
[2] = molecular target: T1, human DR3 (full length, on cells); test: cell-based or functional assay; remark: listed apart in the source
[3] = molecular target: T2, human DR3 with the death domain deleted …; test: flow cytometry competition: Fab vs TL1A on hDR3-expressing CHO cells
[4] = molecular target: T3, DR3 (CRD1)-Fc (human); test: SPR Biacore T200, DR3(CRD1)-Fc captured by anti-human IgG, Fab as analyte, 25 C, 1:1 model, mean of 3 surface densities
T3 construct: Amino acids 25-71 of DR3 fused to the Fc domain of human IgG4; purified to exclude oligomers (mainly dimeric)
Procedure: The experiments were performed on a Biacore T200 instrument (GE Healthcare) and analysed with the Biacore T200 Evaluation Software. Anti human IgG antibodies (human IgG capture kit from GE Healthcare) were immobilized on all flow cells of a CM5 sensor chip according to manufacturer's instructions. HBS-EP (GE Healthcare) with 0.1% human serum albumin was used as running buffer. DR3(CRD1)-Fc (SEQ ID NO:2) was captured on the chip at low surface densities between 14 and 45 RU. Fab fragments were diluted to concentrations between 90 and 0.037 nM and subsequently injected for 360 s. […] Binding curves were measured at 25° C. with a flow rate between 30 and 60 μL/min.
Regeneration was performed with 3 M […] for 2×20 s. The raw data were double referenced by subtraction of the signals from a reference flow cell without captured ligand and a buffer blank. Determination of the kinetic parameters was performed by fitting with a 1:1 binding model using the Biacore T200 Evaluation Software (GE Healthcare). Average values obtained from 3 different surface densities of DR3(CRD1)-Fc (SEQ ID NO:2) were calculated and are stated in table 14

[5] = molecular target: T1, human DR3 (full length, on cells); test: cell-based or functional assay; remark: listed apart in the source
[6] = molecular target: T1, human DR3 (full length, on cells); test: cell-based or functional assay; remark: listed apart in the source
[7] = molecular target: T1, human DR3 (full length, on cells); test: cell-based or functional assay; remark: listed apart in the source

T3 sequence (chain, as listed by the source limits assumed): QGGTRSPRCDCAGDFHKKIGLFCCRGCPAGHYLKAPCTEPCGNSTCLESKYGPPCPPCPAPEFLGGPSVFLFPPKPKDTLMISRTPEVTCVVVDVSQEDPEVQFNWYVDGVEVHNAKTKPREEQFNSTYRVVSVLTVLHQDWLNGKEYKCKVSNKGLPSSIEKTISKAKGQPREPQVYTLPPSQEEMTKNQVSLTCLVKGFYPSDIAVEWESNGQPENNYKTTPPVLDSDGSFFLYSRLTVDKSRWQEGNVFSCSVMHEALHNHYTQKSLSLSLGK

IC50 at 40 ng/ml TL1A, I5 reporter cells [1] [pM] | IC50, TNFalpha inhibition, TL1A-activated CD4+ T cells, donor 1 [2] [pM] | IC50, TNFalpha inhibition, TL1A-activated CD4+ T cells, donor 2 [2] [pM] | max % inhibition of TNFalpha, donor 1 [2] [%] | max % inhibition of TNFalpha, donor 2 [2] [%] | Kd [4] [pM] | koff [4] [s⁻¹] | kon [4] [M⁻¹ s⁻¹] | Binder | IC50 [3] [pM] | max percentage inhibition [3] [%] | also measured
2400 | 1110 | 1200 | 52.3 | 41.3 | 267 | 0.000201 | 752000 | 0124 (chimeric Fab of 28F26, human IgG4 constant domain, hinge Cys->Ser) (Fab, V domains shown, murine variable domains, human IgG4 constant domain (IgG4-Ser)) VH: EVKVVESGGGLVKPGGSLKLSCAASGFVFSSYDMSWVRQIPEKRLEWVAAISSGDYYTYYPDSVKGRFTISRDDARNTLYLQMSSLRSEDTALYYCARHRGGNYPQYAMDYWGQGTSVTVSS VL: DILLTQSPASFAVSLGQRATISCRASKSVSTSGYNYIHWYQQKPGQPPKLLIYLTSNLESGVPARFSGSGSGTDFTLNIHPVEEEDAATYYCQHSRELPFTFGSGTKLEIKR | 1300 | 79 | IC50, TNFalpha inhibition, average (n 4) [2]: 1330 pM; GM-CSF, fold downregulation, +TL1A + anti DR3 Fab [5]: 7.9 fold; IFNγ, fold downregulation, +TL1A + anti DR3 Fab [5]: 1.1 fold; IL-6, fold downregulation, +TL1A + anti DR3 Fab [5]: 13.3 fold; TNFα, fold downregulation, +TL1A + anti DR3 Fab [5]: 5 fold
 |  |  |  |  | 9.55 | 3.06e-05 | 3.2e+06 | 0219 (humanized Fab of 27F44, IgG1, S49A HC) (Fab, V domains shown, Human IgG1 constant part) VH: EVQLVESGGGLVQPGGSLRLSCAASGFTFSNYDMSWVRQATGKGLEWVAAFSSDGYTFYPGSVKGRFTISRENAKNSLYLQMNSLRAGDTAVYYCARHADYANYPVMDYWGQGTLVTVSS VL: DIQMTQSPSSLSASVGDRVTITCRASKSVSTSGYSYMHWYQQKPGKAPKLLIYLASNLESGVPSRFSGSGSGTDFTLTISSLQPEDFATYYCQHSRELPLTFGGGTKVEIK |  |  | 

Further lines, the binder ahead of its results:

Binder | IC50 at 40 ng/ml TL1A, I5 reporter cells [1] [pM] | IC50, TNFalpha inhibition, TL1A-activated CD4+ T cells, donor 1 [2] [pM] | IC50, TNFalpha inhibition, TL1A-activated CD4+ T cells, donor 2 [2] [pM] | max % inhibition of TNFalpha, donor 1 [2] [%] | max % inhibition of TNFalpha, donor 2 [2] [%] | Kd [4] [pM] | koff [4] [s⁻¹] | kon [4] [M⁻¹ s⁻¹] | IC50 [3] [pM] | max percentage inhibition [3] [%] | also measured
0143 (chimeric Fab of 44F434, human IgG4 constant domain, hinge Cys->Ser) (Fab, V domains shown, IgG4-Ser, chimeric) VH: EVQLVESGGDLVMPGGSLKLSCAASGFIFSSYGLSWIRQTPDKRLEWVATISGGDSYTYYPDSVKGRFTISSDNAKNTLYLQMTSLKSEDTAMYYCATQREIYYGTYYALDHWGQGTSVTVSS VL: DIQMTQTTSSLSASLGDRVTISCRASQDINNYLNWYQQKPDGTVKLLIYYTSRLQSGVPSRFSGSGSGTDYSLTISSLEQDDIATYFCQQGSPLPWTFGGGTKLEIKR | 290 | 148 | 74 | 76.7 | 66 | 1.47 | 5.1e-06 | 3.49e+06 | 120 | 76 | IC50, TNFalpha inhibition, average (n 5) [2]: 125 pM
0169 (humanized IgG1 Fab of 0072; HC T28A S49A Y91; LC Q3A T5A S60A M4L) (Fab, V domains shown) VH: EVQLVESGGGLVQPGGSLRLSCAASGFTFSNYDMSWVRQAAGKGLEWVSAFSSDGYTFYPGAVKGRFTISRENAKNSLYLQMNSLRAGDTAVYYCARHADYANYPVMDYWGQGTLVTVSS VL: DIALAQSPSSLSASVGDRVTITCRASKSVSTSGYSYMHWYQQKPGKAPKLLIYLASNLEAGVPSRFSGSGSGTDFTLTISSLQPEDFATYYCQHSRELPLTFGGGTKVEIK |  |  |  |  |  |  |  |  |  |  | IFN-γ, TL1A-costimulated lymphocytes, Fab 0.003 µg/mL [6]: 121 ng/mL; IFN-γ, TL1A-costimulated lymphocytes, Fab 0.01 µg/mL [6]: 138 ng/mL; IFN-γ, TL1A-costimulated lymphocytes, Fab 0.03 µg/mL [6]: 81 ng/mL; IFN-γ, TL1A-costimulated lymphocytes, Fab 0.1 µg/mL [6]: 58 ng/mL; IFN-γ, TL1A-costimulated lymphocytes, Fab 0.3 µg/mL [6]: 31 ng/mL; IFN-γ, TL1A-costimulated lymphocytes, Fab 1.0 µg/mL [6]: 55 ng/mL
0122 (chimeric Fab of 27F16, human IgG4 constant domain, hinge Cys->Ser) (Fab, V domains shown, murine variable domains, human IgG4 constant domain (IgG4-Ser), human kappa) VH: EVQLVESGGDFVKPGGSLKLSCAASGFTFNNYGMSWVRQTPDKRLEWVAAISSGVTYTYYPDTVKGRFTISRDNAKNTLYLHMSSLKSEDTAMYYCGRHDDYGNHFDYWGQGTTLTVSS VL: DIVMTQSPSSLAMSLGQRVTMNCKSSQSLLNSHNQKNYLAWYQQKPGQSPKLLVYFASSRESGVPDRFIGSGSGTDFTLTISSVQAEDLADYFCQQHYSTPFTFGSGTKLEIKR |  |  |  | 3.9 | 10 |  |  |  | 5110 | 33 | 
0118 (chimeric Fab of 27F16, human IgG1 constant domain) (Fab, V domains shown) VH: EVQLVESGGDFVKPGGSLKLSCAASGFTFNNYGMSWVRQTPDKRLEWVAAISSGVTYTYYPDTVKGRFTISRDNAKNTLYLHMSSLKSEDTAMYYCGRHDDYGNHFDYWGQGTTLTVSS VL: DIVMTQSPSSLAMSLGQRVTMNCKSSQSLLNSHNQKNYLAWYQQKPGQSPKLLVYFASSRESGVPDRFIGSGSGTDFTLTISSVQAEDLADYFCQQHYSTPFTFGSGTKLEIKR |  |  |  |  |  |  |  |  |  |  | IFN-γ, TL1A-costimulated lymphocytes, Fab 0.003 µg/mL [6]: 132 ng/mL; IFN-γ, TL1A-costimulated lymphocytes, Fab 0.01 µg/mL [6]: 134 ng/mL; IFN-γ, TL1A-costimulated lymphocytes, Fab 0.03 µg/mL [6]: 158 ng/mL; IFN-γ, TL1A-costimulated lymphocytes, Fab 0.1 µg/mL [6]: 151 ng/mL; IFN-γ, TL1A-costimulated lymphocytes, Fab 0.3 µg/mL [6]: 124 ng/mL; IFN-γ, TL1A-costimulated lymphocytes, Fab 1.0 µg/mL [6]: 132 ng/mL; IFN-γ, TL1A-costimulated RA SF cells, Fab 0.003 µg/mL [7]: 2310 pg/mL; IFN-γ, TL1A-costimulated RA SF cells, Fab 0.01 µg/mL [7]: 2280 pg/mL; IFN-γ, TL1A-costimulated RA SF cells, Fab 0.03 µg/mL [7]: 2080 pg/mL; IFN-γ, TL1A-costimulated RA SF cells, Fab 0.1 µg/mL [7]: 2100 pg/mL; IFN-γ, TL1A-costimulated RA SF cells, Fab 0.3 µg/mL [7]: 2120 pg/mL; IFN-γ, TL1A-costimulated RA SF cells, Fab 1 µg/mL [7]: 2230 pg/mL
0130 (recombinant murine Fab of 45F36) (Fab, V domains shown, murine Fab; also called 00130) VH: EVQLVESGGGLVKPGGSLKLSCAASGFTFSSYAMSWVRQSPDKRLEWVAEISSGDTYTYYPDTVTGRFTISRDNAKKTLYLEMSGLRSEDTAMYYCARDREAYYGQQYVMDYWGQGTSVTVSS VL: DIVLTQSPASLAVSLGLSVTISCRASESIEYSGTSFLQWYQQKPGQPPRLLIYGSSTVESGVPARFSGSGSGTDFSLNIHPVEEDDSAMYFCQQSRRLPWTFGGGTKLEIKR | 1400 | 539 | 1770 | 84.4 | 78 | 120 | 0.000208 | 1.74e+06 | 1340 | 73 | IC50, TNFalpha inhibition, average (n 5) [2]: 642 pM

— patent US20170305994A1 (Novo Nordisk, published 2017)
